The chains are these.
B1: HDV Ribozyme (parent)
chain: GGCCGGCAUGGUCCCAGCCUCCUCGCUGGCGCCGGCUGGGCAACAUUCCGAGGGGACCGUCCCCUCGGUAAUGGCGAAUGGGACCCA

In the series the parent is B1. The series is described as follows: self-cleavage, relative activity (ratio to wild type); higher = more cleavage; co-transcriptional.
C21A: the self-cleavage came out at 0.0856.
The same measure for U20C A87U: 0.189; for U20C A87C: 0.254; for U20C U79G: 0.185.
To U20C C75U belongs 0; to U20C C75G, 0; to U20G C57U, 0.302.
With U20G C57A, the self-cleavage stood at 0.111.
To U20G C57G belongs 0.208; to U20G C75G, 0.
Regarding U20G C75A, the self-cleavage was found to be 0.0978.
As for U20C G25C, the self-cleavage is 0.227.
For U20C G25U, the self-cleavage was 0.0415.
In the case of C21A U72C, the self-cleavage was 0.101.
Consider C21A A87C, for which the self-cleavage came to 0.0742.
Consider U20G U60A, for which the self-cleavage was 0.
Regarding C21A C86A, the self-cleavage was 0.0563.
As for C21A C86G, the self-cleavage worked out at 0.111.
For the variant C21A C86U, the self-cleavage stood at 0.0308.
With C21A A51C, the self-cleavage stood at 0.175.
The same measure for C21A A51U: 0.0369.
C21A A51G: the self-cleavage is 0.0326.
On to C21A G81C, for which the self-cleavage came out at 0.0923.
As to C21A A71G, the self-cleavage was found to be 0.0573.
Take C21A A71U: the self-cleavage was 0.106.
To U20G C84A belongs 0.222.
The same measure for U20G C84U: 0.185.
For C21A C58A, the self-cleavage worked out at 0.104.
For C21A C58U, the self-cleavage was 0.0627.
C21A A43C: the self-cleavage was 0.116.
For the variant C21A A43G, the self-cleavage was 0.132.
For the variant C21A G55U, the self-cleavage turned out to be 0.0554.
Consider C21A G55A, for which the self-cleavage came to 0.129.
Regarding U20G C63U, the self-cleavage stood at 0.297.
U20G C63A: the self-cleavage worked out at 0.214.
For U20C A83C, the self-cleavage amounted to 0.133.
On to U20C A83U, for which the self-cleavage was determined as 0.
For U20G C86G, the self-cleavage came to 0.287.
Consider U20G C86A, for which the self-cleavage turned out to be 0.237.
Turning to U20C A78C, the self-cleavage is 0.0449.
On to U20C A78G, for which the self-cleavage was found to be 0.0755.
On to U20C G50U, for which the self-cleavage came out at 0.163.
As for U20C G50C, the self-cleavage was 0.312.
C21A U37C: the self-cleavage was found to be 0.196.
To C21A U37A belongs 0; to U20C C57U, 0.306; to U20C C57A, 0.0449.
To U20G C41U belongs 0.287; to U20G C41G, 0.166.
Regarding U20C G55U, the self-cleavage is 0.199.
Consider U20C G31A, for which the self-cleavage is 0.0415.
In the case of U20C U60C, the self-cleavage was determined as 0.0978.
In the case of U20C U60A, the self-cleavage was determined as 0.115.
As for U20G G73C, the self-cleavage came out at 0.
To U20G G73U belongs 0.136; to U20C C41A, 0.156; to U20C C41U, 0.0449.
In the case of U20C U23C, the self-cleavage turned out to be 0.0723.
In the case of U20C U23G, the self-cleavage was 0.
As to C21A G50A, the self-cleavage is 0.111.
To C21A U79A belongs 0.125.
The same measure for U20C C63G: 0.104.
On to U20C C63U, for which the self-cleavage turned out to be 0.0898.
On to U20G G28C, for which the self-cleavage amounted to 0.
Take U20G G28U: the self-cleavage came to 0.0831.
As to U20G G28A, the self-cleavage was 0.0536.
As for U20G G40A, the self-cleavage turned out to be 0.374.
For the variant C21A G40U, the self-cleavage stood at 0.134.
As for U20C C32U, the self-cleavage was 0.0426.
On to U20C C32A, for which the self-cleavage came out at 0.185.
For the variant U20G U47C, the self-cleavage is 0.133.
To U20G C66U belongs 0.148.
The same measure for C21A A45U: 0.0923.
The same measure for U20A G76A: 0.135.
Turning to U20A G76U, the self-cleavage was 0.
Take U20C C21U: the self-cleavage came out at 0.0339.
Consider U20G U23G, for which the self-cleavage stood at 0.185.
For U20G G31U, the self-cleavage was 0.102.
To U20G G82U belongs 0.104.
Consider U20C A56C, for which the self-cleavage came to 0.0615.
To U20C A56G belongs 0.101.
Consider U20C A56U, for which the self-cleavage turned out to be 0.266.
To C21A C24U belongs 0.0739.
On to C21A C24G, for which the self-cleavage turned out to be 0.
In the case of C21A C24A, the self-cleavage turned out to be 0.
In the case of C21A A42C, the self-cleavage was found to be 0.0437.
In the case of U20G C24U, the self-cleavage turned out to be 0.
For the variant U20G C24G, the self-cleavage was 0.151.
As for U20G C24A, the self-cleavage amounted to 0.17.
As for U20G G25C, the self-cleavage stood at 0.
Turning to U20G U79A, the self-cleavage is 0.175.
Regarding U20G U79G, the self-cleavage amounted to 0.208.
As to U20G U79C, the self-cleavage turned out to be 0.0773.
U20C A77C: the self-cleavage is 0.0615.
To U20C A77G belongs 0.208; to U20G C30U, 0.
As to U20G C30G, the self-cleavage is 0.0554.
The same measure for U20G G34U: 0.0519.
To U20G G34C belongs 0.138; to U20G G76C, 0.35; to U20G G76A, 0.214.
To U20C A42G belongs 0.
As to U20C C58U, the self-cleavage was determined as 0.
Consider U20C A70C, for which the self-cleavage came out at 0.246.
Turning to U20C G35C, the self-cleavage was 0.
The same measure for U20C G35A: 0.101.
To C21A C32A belongs 0.17; to C21A C32U, 0.0978.
For U20A U46C, the self-cleavage was found to be 0.
In the case of C21A A83C, the self-cleavage is 0.0378.
Consider C21A A83G, for which the self-cleavage was determined as 0.0519.
Turning to U20C C49G, the self-cleavage turned out to be 0.0852.
Take U20C C49U: the self-cleavage amounted to 0.192.
U20C U72G: the self-cleavage was determined as 0.0723.
The same measure for U20C G67C: 0.405.
The same measure for U20A G74A: 0; for U20A G74U: 0.0437.
Regarding C21A G31C, the self-cleavage was found to be 0.0817.
C21A G31U: the self-cleavage was found to be 0.142.
For C21A U23G, the self-cleavage worked out at 0.125.
The same measure for C21A U23C: 0.0755.
For the variant C21A G76C, the self-cleavage turned out to be 0.0997.
As to C21A G76A, the self-cleavage came out at 0.256.
With C21A G76U, the self-cleavage came to 0.0906.
With C21A G80U, the self-cleavage worked out at 0.0622.
To C21A G80A belongs 0.0289; to U20G G68C, 0.166.
To U20G G68U belongs 0.201; to U20A U23G, 0; to U20G U27G, 0.332.
The same measure for U20G U27C: 0; for U20G U27A: 0.266.
Consider U20C A45C, for which the self-cleavage was determined as 0.
As to U20C A45G, the self-cleavage worked out at 0.
As to C21A G52C, the self-cleavage is 0.125.
To C21A G52U belongs 0.107; to C21A C48U, 0.0639.
On to C21A A56G, for which the self-cleavage was 0.109.
On to C21A A56C, for which the self-cleavage was found to be 0.0898.
With C21A G53C, the self-cleavage turned out to be 0.0639.
U20C G34A: the self-cleavage turned out to be 0.0504.
For U20G C64A, the self-cleavage is 0.178.
U20G C64G: the self-cleavage was 0.196.
To U20G G59A belongs 0.268; to U20G C32A, 0; to U20G C32U, 0.0519.
To U20G G52A belongs 0.499.
With U20G G52C, the self-cleavage was determined as 0.256.
For the variant U20C G74A, the self-cleavage is 0.125.
On to C21A G68U, for which the self-cleavage amounted to 0.0432.
As to C21A G68A, the self-cleavage worked out at 0.0779.
U20C C84U: the self-cleavage is 0.111.
Consider C21A C64U, for which the self-cleavage turned out to be 0.0852.
Regarding C21A C64G, the self-cleavage amounted to 0.0604.
For the variant C21A C64A, the self-cleavage worked out at 0.0692.
For the variant U20C U69A, the self-cleavage was 0.
U20C U69C: the self-cleavage worked out at 0.208.
For the variant U20G A56C, the self-cleavage stood at 0.196.
For U20G A56G, the self-cleavage stood at 0.151.
Regarding U20A U69C, the self-cleavage came out at 0.
Take U20A U69G: the self-cleavage is 0.0519.
For U20A G81A, the self-cleavage worked out at 0.
For the variant U20A G81U, the self-cleavage stood at 0.0346.
To U20G C44A belongs 0.262.
For C21A G34A, the self-cleavage amounted to 0.119.
In the case of U20C G54A, the self-cleavage was determined as 0.145.
In the case of C21A C49G, the self-cleavage worked out at 0.102.

The record behind these values is the RNAGym collection of RNA variant scans (doi:10.7554/elife.80360).
